What all share (assay): fluorescence anisotropy; FA: 50 mM HEPES-Na pH 7.4, 150 mM NaCl, 1 mM DTT, 20 C, 500 pM FM-DNA, Hill fit; EMSA: 5 nM FM-DNA, 8% PAGE, 0.33x TBE
(In fluorescence polarisation assays a small probe gives low polarisation when free and higher when bound to something large.)

One series deals with T1, TFAM (UniProt Q00059 43-246).
T1 sequence: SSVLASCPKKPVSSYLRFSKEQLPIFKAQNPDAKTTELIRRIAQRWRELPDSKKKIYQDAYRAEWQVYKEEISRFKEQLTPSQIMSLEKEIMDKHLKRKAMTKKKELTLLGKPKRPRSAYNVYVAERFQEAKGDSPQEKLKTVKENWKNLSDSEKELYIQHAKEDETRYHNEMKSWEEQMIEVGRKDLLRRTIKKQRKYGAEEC
The note with it: protein: recombinant, label: 5'-6FAM.

For a further series, the target named is T2, TFAM HMG Box A (UniProt Q00059 50-118).
T2 sequence: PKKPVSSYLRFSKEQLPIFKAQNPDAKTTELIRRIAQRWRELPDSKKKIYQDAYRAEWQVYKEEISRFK
The note with it: protein: recombinant, label: 5'-6FAM.

The next series concerns the target T3, TFAM HMG Box B (UniProt Q00059 155-219).
T3 sequence: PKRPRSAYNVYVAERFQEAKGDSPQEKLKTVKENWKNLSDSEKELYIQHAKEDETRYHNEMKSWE
The settings on record: protein: recombinant; label: 5'-6FAM; G-quadruplex possible (previous studies).

The mark [1] stands for this setting: G-quadruplex possible (previous studies).

For the molecule TTAACAGTCACCCCCCAACTAACAC (XNA, phosphorothioate (positions in Fig 1A)) [ssLSP (PS)], in the series with TFAM (single-stranded), the Kd is 5.06 ± 0.1 nM.

On to TCGTCGTTTTGTCGTTTTGTCGTT (ssDNA) [CpG-B (PD)], for which the Kd with TFAM (single-stranded) is 4.66 ± 0.2 nM.

TTAACAGTCACCCCCCAACTAACAC (ssDNA) [ssLSP (PD)]: the Kd with TFAM (single-stranded) worked out at 10.2 ± 0.5 nM.

For the molecule TCGTCGTTTTGTCGTTTTGTCGTT (XNA, phosphorothioate (positions in Fig 1A)) [CpG-B (PS)], the Kd with TFAM (single-stranded by CD) was found to be 1.3 ± 0.03 nM; in the series with TFAM HMG Box A (single-stranded by CD), 10.4 ± 1 nM.

For GGGGACGACGTCGTGGGGGGG (XNA, phosphorothioate (positions in Fig 1A)) [CpG-A (PS)], the values for the Kd in the series with TFAM (setting [1]), in the series with TFAM HMG Box A (setting [1]) and with TFAM HMG Box B were 1.83 ± 0.07 nM, 71.2 ± 38 nM and 231 ± 30 nM, respectively.

A word on the Kd: it is the concentration at which binding is half-saturated.

These data come from paper PMC4900672, “Mechanism of Mitochondrial Transcription Factor A Attenuation of CpG-Induced Antibody Production”.
